Experimental findings from patent publication KR20120135868A (dated 2012) are described below.

The labels stand for the following.
T1: 인간 FcεRI의 α 서브유니트(FcεRIα)의 가용성 단편 (human, UniProt P12319 26-205, limits assumed)
T1 construct: domain: 가용성 단편 (soluble fragment); also called soluble sFcεRI; sFcεRI
T1 sequence (looked up): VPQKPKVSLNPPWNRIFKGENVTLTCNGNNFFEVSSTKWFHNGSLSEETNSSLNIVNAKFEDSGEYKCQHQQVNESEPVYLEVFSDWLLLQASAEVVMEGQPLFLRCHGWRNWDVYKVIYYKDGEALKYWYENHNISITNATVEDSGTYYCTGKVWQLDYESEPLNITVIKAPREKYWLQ

B1: NPB 302 scFv (scFv, V domains shown)
VH: EVQLVESGAEVKKPGSSVKVSCKASGGTFSSYAISWVRQAPGQGLEWMGRIIPILGIANYAQKFQGRVTITADKSTSTAYMELSSLRSEDTAVYYCARVNPFGYYYAMDVWGQGTTVTVSS
VL: QSVLTQPPSASGTPGQRVTISCSGSTSNIGGNSVNWYQQLPGAAPKLLIYANIQRPSGVPDRFSGSKSGTSASLAISGLQSEDEADYYCASWDDSRNGYVFGTGTKVTVL
B2: NPB 313 scFv (scFv, V domains shown)
VH: EVQLVQSGAEVKKPGSSVKVSCKASGGTFSSYAISWVRQAPGQGLEWMGRIIPILGIANYAQKFQGRVTITADKSTSTAYMELSSLRSEDTAVYYCARVNPFGYYYAMDVWGQGTTVTVSS
VL: DIQMTQSPSSVSASVGDRVTIPCRASQGISSWLAWYQQKPGKAPKLLIYAASNLQSGVPSRFSGSGSGTDFTLTISSLQPEDSATYYCQQTDSFPLTFGGGTKVEIK
B3: NPB 303 scFv (scFv, V domains shown)
VH: EVQLVQSGAEVKKSGESLKISCKGFGYTFTRNWIGWVRQMPGKGLEWMGIIYPGDSDTRYSPSFQGQVTISADKSISTAYLQWSSLKASDTAMYYCARDVGNGDYGLDVWGQGTTVTVSS
VL: QSALTQPASVSGSPGQSITISCTGTSSDIGGYDFVSWYQQHPGKAPKLIIYDVTRRPSEISNRFSASKSGNTASLTISGLQAEDEADYYCSSYTSSSTPYVFGTGTKVTVL
B4: NPB 314 scFv (scFv, V domains shown)
VH: EVQLVQSGAEVKKPGESLKISCKGSGYTFTKYWIGWVRQMPGKGLEWMGIIYPGDSDTTYSPSFQGQVTISADKSISTAYLQWSSLKASDTAMYYCAKDNPFTGSFDIWGQGTMVTVSS
VL: QSALTQPASMSGFPGQSITISCTGTRDDVGNYDLVSWYQQQPAKAPKLLIYEDNKRPSGVSSRFSGSKSGSTASLTISGLQTEDEADYYCCSYAGDYTYVFGTGTKVTVL
B5: NPB 307 scFv (scFv, V domains shown)
VH: EVQLVQSGAEVKKSGESLKISCKGFGYRFTSYWIGWVRQMPGKGLEWMGIIYPGDSDTRYSPSFQGQVTISADKSISTAYLQWSSLKASDTAMYYCAKDNPFTGSFDIWGLGTMVTVSS
VL: QSALTQPRSVSGSPGQSVTISCTGTSNDVGGYTYVSWYQQHPGKAPKLMIYDVSKRPSGVPDRFSGSKSGNTASLTISGLQAEDEADYYCSSYAGSYTWVFGGGTKLTVL
B6: NPB 308 scFv (scFv, V domains shown)
VH: EVQLVQSGAEVKKPGESLKISCKGSGYTFTKYWIGWVRQMPGKGLEWMGIIYPGDSDTTYSPSFQGQVTISADKSISTAYLQWSSLKASDTAMYYCAKDNPFTGSFDIWGQGTMVTVSS
VL: QSALTQPRSVSGSPGQSVTISCTGTSNDVGGYTYVSWYQQHPGKAPKLMIYDVSKRPSGVPDRFSGSKSGNTASLTISGLQAEDEADYYCSSYAGSYTWVFGGGTKLTVL
B7: NPB 312 scFv (scFv, V domains shown)
VH: EVQLVQSGAEVKKPGESLKISCEGSGYRFSSYWIAWVRQKPGKGLEWMGIIYPYDSDTKYGPSFGGQVTISADKSINTAYLEWSSLKASDTAMYYCARLALIRGSIIFDYWGLGTLVTVSS
VL: QSALTQPRSVSGSPGQSVTISCTGSRGDVGGYDFVSWYRQYPGEAPQLIIYDVSGRPSGVPDRFSGSKSGNTASLTISGLQPEDEADYYCSSYAGSEIYVFGTGTKVTVL
B8: NPB 306 scFv (scFv, V domains shown)
VH: EVQLVQSGAEVKKPGESLKISCEGSGYRFSSYWIAWVRQKPGKGLEWMGIIYPYDSDTKYGPSFGGQVTISADKSINTAYLEWSSLKASDTAMYYCARLALIRGSIIFDYWGLGTLVTVSS
VL: QSVLTQPSSVSGAPGQRVTISCTGSSSNIGAGYDVHWYQHLPGTAPKLLIYGINIRPSGVPDRFSGSKSDTSASLAITALQAEDEADYYCQSYDSSLRSVVFGGGTKLTVL
B9: NPB 309 scFv (scFv, V domains shown)
VH: EVQLVQSGAEVKKPGESLKISCEGSGYRFSSYWIAWVRQKPGKGLEWMGIIYPYDSDTKYGPSFGGQVTISADKSINTAYLEWSSLKASDTAMYYCARLALIRGSIIFDYWGLGTLVTVSS
VL: QSVLTQPSSVSGAPGQRVTISCTGSSSNIGADYDVHWYQLVSGAAPKLLIYGYTNRPSGVPDRFSGSKSGTSASLVIAGLQAEDEADYYCQSYDSSLSEVVFGGGTKLTVL
B10: NPB 304 scFv (scFv, V domains shown)
VH: EVQLLESGGGLVQPGGSLRLSCAASGLAFSDYYMSWVRLAPGKGLEWVSVISPGSGSKYYADSVKGRFTISRDNSKNTLYLQMNSLRAEDTAVYYCARYVGGMMMKRDFYYAMDVWGQGTLVTVSS
VL: QSVLTQPPSASGTPGQRVTISCSGSSSNIGSNAVNWYQQLPGTAPKLLIYYDSHRPSEVPDRFSGSKSGTSASLAISGLRSEDEADYYCGTWDSSLSGYVFGGGTKLTVL
B11: NPB 305 scFv (scFv, V domains shown)
VH: EVQLLESGGGLVQPGGSLRLSCAASGLAFSDYYMSWVRLAPGKGLEWVSVISPGSGSKYYADSVKGRFTISRDNSKNTLYLQMNSLRAEDTAVYYCARYVGGMMMKRDFYYAMDVWGQGTLVTVSS
VL: QSVLTQPPSASGTPGQRVTISCTGSSSNIGNNDVSWYQQLPGTAPKLLIYSNNQRPSGVPDRFSGSKSGTSASLAISGLRSGDEADYYCGTWDYSLSGYVFGGGTKLTVL

The target in this assay is T1, 인간 FcεRI의 α 서브유니트(FcεRIα)의 가용성 단편. Description: phage ELISA, scFv on phage, selected after panning on coated FcεRI.
For the molecule B1, the binding result is on record as “binds”.
As for B2, the binding result is reported as “binds”.
Consider B3, for which the binding result is given as “binds”.
B4: the binding result is “binds”.
In the case of B5, the binding result is reported as “binds”.
Regarding B6, the binding result is “binds”.
For B7 the value was “binds”; for B8, “binds”.
In the case of B9 it was “binds”; in that of B10, “binds”.
For B11 the value was “binds”.
